Measured values as given in publication PMC12666738.
Positions count from the first letter of the chain named. Names and notes keep the numbering of the source.

T1: GST-tagged C-terminal domain of SALM1, Q9ULH4
T1 chain: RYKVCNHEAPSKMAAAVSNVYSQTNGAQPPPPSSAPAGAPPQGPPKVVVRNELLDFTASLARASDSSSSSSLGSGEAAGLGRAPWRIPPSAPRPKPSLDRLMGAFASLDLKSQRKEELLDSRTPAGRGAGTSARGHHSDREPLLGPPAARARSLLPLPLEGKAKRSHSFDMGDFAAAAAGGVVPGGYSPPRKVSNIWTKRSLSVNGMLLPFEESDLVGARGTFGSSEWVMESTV

T2: GST-tagged C-terminal domain of CNTNAP2, Q9UHC6
T2 chain: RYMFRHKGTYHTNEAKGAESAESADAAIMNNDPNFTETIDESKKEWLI

T3: GST-tagged C-terminal domain of Nrxn1β, Q63373
T3 chain: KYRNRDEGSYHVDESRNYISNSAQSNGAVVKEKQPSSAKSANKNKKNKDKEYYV

B1: His6-SUMO-tagged CASK PSG supramodule WT, O14936-2 G521V (protein)
chain: MADDDVLFEDVYELCEVIGKGPFSVVRRCINRETGQQFAVKIVDVAKFTSSPGLSTEDLKREASICHMLKHPHIVELLETYSSDGMLYMVFEFMDGADLCFEIVKRADAGFVYSEAVASHYMRQILEALRYCHDNNIIHRDVKPHCVLLASKENSAPVKLGGFGVAIQLGESGLVAGGRVGTPHFMAPEVVKREPYGKPVDVWGCGVILFILLSGCLPFYGTKERLFEGIIKGKYKMNPRQWSHISESAKDLVRRMLMLDPAERITVYEALNHPWLKERDRYAYKIHLPETVEQLRKFNARRKLKGAVLAAVSSHKFNSFYGDPPEELPDFSEDPTSSGLLAAERAVSQVLDSLEEIHALTDCSEKDLDFLHSVFQDQHLHTLLDLYDKINTKSSPQIRNPPSDAVQRAKEVLEEISCYPENNDAKELKRILTQPHFMALLQTHDVVAHEVYSDEALRVTPPPTSPYLNGDSPESANGDMDMENVTRVRLVQFQKNTDEPMGITLKMNELNHCIVARIMHVGMIHRQGTLHVGDEIREINGISVANQTVEQLQKMLREMRGSITFKIVPSYRTQSSSCERDSPSTSRQSPANGHSSTNNSVSDLPSTTQPKGRQIYVRAQFEYDPAKDDLIPCKEAGIRFRVGDIIQIISKDDHNWWQGKLENSKNGTAGLIPSPELQEWRVACIAMEKTKQEQQASCTWFGKKKKQYKDKYLAKHNAVFDQLDLVTYEEVVKLPAFKRKTLVLLGAHGVGRRHIKNTLITKHPDRFAYPIPHTTRPPKKDEENGKNYYFVSHDQMMQDISNNEYLEYGSHEDAMYGTKLETIRKIHEQGLIAILDVEPQALKVLRTAEFAPFVVFIAAPTITPGLNEDESLQRLQKESDILQRTYAHYFDLTIINNEIDETIRHLEEAVELVCTAPQWVPVSWVY
B2: His6-SUMO-tagged CASK PSG supramodule WT, O14936-2 Y723C (protein)
chain: MADDDVLFEDVYELCEVIGKGPFSVVRRCINRETGQQFAVKIVDVAKFTSSPGLSTEDLKREASICHMLKHPHIVELLETYSSDGMLYMVFEFMDGADLCFEIVKRADAGFVYSEAVASHYMRQILEALRYCHDNNIIHRDVKPHCVLLASKENSAPVKLGGFGVAIQLGESGLVAGGRVGTPHFMAPEVVKREPYGKPVDVWGCGVILFILLSGCLPFYGTKERLFEGIIKGKYKMNPRQWSHISESAKDLVRRMLMLDPAERITVYEALNHPWLKERDRYAYKIHLPETVEQLRKFNARRKLKGAVLAAVSSHKFNSFYGDPPEELPDFSEDPTSSGLLAAERAVSQVLDSLEEIHALTDCSEKDLDFLHSVFQDQHLHTLLDLYDKINTKSSPQIRNPPSDAVQRAKEVLEEISCYPENNDAKELKRILTQPHFMALLQTHDVVAHEVYSDEALRVTPPPTSPYLNGDSPESANGDMDMENVTRVRLVQFQKNTDEPMGITLKMNELNHCIVARIMHGGMIHRQGTLHVGDEIREINGISVANQTVEQLQKMLREMRGSITFKIVPSYRTQSSSCERDSPSTSRQSPANGHSSTNNSVSDLPSTTQPKGRQIYVRAQFEYDPAKDDLIPCKEAGIRFRVGDIIQIISKDDHNWWQGKLENSKNGTAGLIPSPELQEWRVACIAMEKTKQEQQASCTWFGKKKKQYKDKYLAKHNADLVTCEEVVKLPAFKRKTLVLLGAHGVGRRHIKNTLITKHPDRFAYPIPHTTRPPKKDEENGKNYYFVSHDQMMQDISNNEYLEYGSHEDAMYGTKLETIRKIHEQGLIAILDVEPQALKVLRTAEFAPFVVFIAAPTITPGLNEDESLQRLQKESDILQRTYAHYFDLTIINNEIDETIRHLEEAVELVCTAPQWVPVSWVY
B3: His6-SUMO-tagged CASK PSG supramodule WT, O14936-2 P673L (protein)
chain: B2 chain with P673L, C723Y

Legend:
[1] = biological target: mRFP-tagged CASK I672V (human) (UniProt O14936); test: co-IP; HEK293T cells cotransfected, lysed in RIPA buffer 24 h after transfection; mRFP-tagged CASK precipitated with magnetic RFP-Trap beads, 2 h at 4°C, five washes in RIPA; Western blot
[2] = biological target: T1, GST-tagged C-terminal domain of SALM1, …; test: pull-down; settings: chain shown with the change; n = 4; His6-signals normalized to GST-signals derived from the same blot; parent: est. 0.85; read off a plot
[3] = biological target: T2, GST-tagged C-terminal domain of …; test: pull-down; settings: chain shown with the change; n = 4; His6-signals normalized to GST-signals derived from the same blot; parent: est. 3.1; read off a plot
[4] = biological target: T3, GST-tagged C-terminal domain of Nrxn1β, …; test: pull-down; settings: chain shown with the change; n = 4; His6-signals normalized to GST-signals derived from the same blot; parent: est. 2.9; read off a plot

Row | Molecule | reduction of bound Nrxn1β against CASK WT [1] | response [2] | response [3] | response [4]
1 | HA-tagged Neurexin-1β (from UniProt Q63373 47-468) (natural protein) | 50% | – | – | –
2 | B1 | – | 0.7 | 1.5 | 0.9
3 | B2 | – | 0.15 | 0.45 | 0.9
4 | B3 | – | 0.15 | 0.45 | 1
